The target in experiment [1] is T1, E1 domain of chicken APP (chicken, biotin (EZ-Link NHS-PEG4-Biotin, 1:1 molar ratio) where immobilised in BLI).
T1 chain: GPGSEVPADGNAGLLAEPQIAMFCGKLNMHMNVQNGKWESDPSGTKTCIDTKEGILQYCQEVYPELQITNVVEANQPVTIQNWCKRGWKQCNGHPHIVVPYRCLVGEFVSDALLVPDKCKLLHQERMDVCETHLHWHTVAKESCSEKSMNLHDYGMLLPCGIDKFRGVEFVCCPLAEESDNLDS
Description: BLI. A general note: BLI is a label-free optical method that tracks binding on a fibre tip over time.

The target in experiment [2] is T2, E1 domain of human APLP1 (human, UniProt P51693 50-212, biotin (EZ-Link NHS-PEG4-Biotin, 1:1 molar ratio) where immobilised in BLI).
T2 chain: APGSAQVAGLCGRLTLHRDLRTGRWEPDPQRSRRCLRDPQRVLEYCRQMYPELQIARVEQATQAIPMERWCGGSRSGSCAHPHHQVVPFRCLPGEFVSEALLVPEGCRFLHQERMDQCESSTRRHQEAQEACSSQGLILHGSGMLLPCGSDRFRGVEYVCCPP
Description: BLI.

B1: FN1–FN3 region of chicken CNTN4, T751A and V752A (domain or fragment)
chain: GSTGSPPGPPEDVTIDEITDTTAQLSWRPGADNHSPITMYVVQARTPFSVGWQAVSTVPEVIDGKTFTATVVGLNPWVEYEFRVVAANLIGIGEPSRPSENRRTEEALPEVTPANVSGGGGSKSELVITWETVPEELQNGGGFGYVVAFRPFGTISWMQAAVASPDASRYVFRNESLPPFSPYEVKVGVYNNKGEGSFSPVTVVYSAEEEPTRAPITVLARSLSATDIEISWAPPRENQHKGRIQGYEVRCWRHDEKEENARKIRTVGNQTSAKVTNLQGNALYHLAVKAYNTAGTGPSSAMVNVTTKK
In the case of B1, the Kd in experiment [1] turned out to be 20.9 µM.

B2: FN1–FN3 region of CNTN5 titrated against human APLP1(E1) and human APLP2(E1) (domain or fragment)
chain: PPGIVIVEEITESTATLSWSPAADNHSPISSYNLQARSPFSLGWQTVKTVPEIITGDMESAMAVDLNPWVEYEFRVVATNPIGTGDPSTPSRMIRTNEAVPKTAPTNVSGRSGRRHELVIAWEPVSEEFQNGEGFGYIVAFRPNGTRGWKEKMVTSSEASKFIYRDESVPPLTPFEVKVGVYNNKGDGPFSQIVVICSAEGEPSAAPTDVKATSVSVSEILVAWKHIKESLGRPQGFEVGYWKDMEQEDTAETVKTRGNESFVILTGLEGNTLYHFTVRAYNGAGYGPPSSEVSATTKKS
As to B2, the Kd in experiment [2] is 10.9 µM.

B3: FN1–FN3 region of CNTN3 titrated against human APLP1(E1) (domain or fragment)
chain: PPENVKVDEITDTTAQLSWKEGKDNHSPVISYSIQARTPFSVGWQTVTTVPEVIDGKTHTATVVELNPWVEYEFRVVASNKIGGGEPSLPSEKVRTEEAVPEVPPSEVNGGGGSRSELVITWDPVPEELQNGEGFGYVVAFRPLGVTTWIQTVVTSPDTPRYVFRNESIVPYSPYEVKVGVYNNKGEGPFSPVTTVFSAEEEPTVAPSQVSANSLSSSEIEVSWNTIPWKLSNGHLLGYEVRYWNGGGKEESSSKMKVAGNETSARLRGLKSNLAYYTAVRAYNSAGAGPFSATVNVTTKKT
As for B3, the Kd in experiment [2] was 9.1 µM.

Source of the values: publication PMC8808184 (2021).
